Source: patent publication US20230250135A1 (Janssen / Centocor, published 2023)

Key:
UFV161715 = UFV161715 (influenza A virus A/Hong Kong/1/68 …); assay: Binding-AlphaLISA, Expi293F supernatant, normalized to UFV161333
UFV171004 = UFV171004 (influenza A virus A/Hong Kong/1/68 …); assay: ELISA on purified polypeptide
UFV170051 = UFV170051 (influenza A virus A/Hong Kong/1/68 …); assay: Binding-AlphaLISA, Expi293F supernatant, reference UFV170051
UFV161721 = UFV161721 (influenza A virus A/Hong Kong/1/68 …); assay: Binding-AlphaLISA, Expi293F supernatant, normalized to UFV161333
UFV161333 = UFV161333 (influenza A virus A/Hong Kong/1/68 …)

B1: CT149 (antibody, V domains shown)
VH: QVQLVQSGAEVKKPGASVKVSCKTSGYSFSTYGVSWVRQAPGQGPEWVGWISAYTGITDYAQKFQGRVTLTTDATTATAFLDLRSLRPDDTATYFCARDKVQGRVEVGSGGRHDYWGQGTLVIVSS
VL: EVVLTQSPGTLALPPGERATLSCRASHRVGSTYIAWYQQKSGQAPRRLIYGASNRATDIPDRFSGSGSGTDFTLTIRRLEPEDSAVYYCQQFSVSPWTFGQGTRVEIK
UFV161715
  binding relative to reference UFV161333: ~90%
UFV171004
  EC50: < 0.01 nM
UFV170051
  binding result: binds

B2: SD15013 (VHH)
VHH: EVQLVESGGGLVQAGDSLRISCAASGRTLSIYSMGWFRQAPGKEREFVATIGWNSGRTFYPDSLKGRFTISRDNARNTLYLQMNNLRPEDTAVYYCAAAKGPLRLSSQADYWGQGTQVTVSS
UFV161721
  binding relative to reference UFV161333: ~60%
UFV161715
  binding relative to reference UFV161333: ~60%
UFV161333
  fold increase in binding relative to reference UFV161686: 10 fold
